Data reported in patent US20190328910A1 (University of California, published 2019).
*: point of attachment. Benzoyl(4-F) = O=C(c1ccc(F)cc1)*

B1: Me-…(FB) (peptide)
peptide: XGDLTYLKX
modifications: N-terminal methyl (Me); fluorobenzoyl (FB) on the side chain of the C-terminal lysine
notes: N-methylated variant of ST1-62
B2: Ac-…(FB) (peptide)
peptide: XGDLTYLKX
modifications: N-terminal acetyl (Ac); fluorobenzoyl (FB) on the side chain of the C-terminal lysine
notes: N-acetylated variant of ST1-62
B3: FB-…(Ac) (peptide)
peptide: XGDLTYLKX
modifications: N-terminal fluorobenzoyl (FB); acetyl (Ac) on the side chain of the C-terminal lysine
notes: N-fluorobenzoylated variant of ST1-62
B4: FB-…(FB) (peptide)
peptide: XGDLTYLKX
modifications: N-terminal fluorobenzoyl (FB); fluorobenzoyl (FB) on the side chain of the C-terminal lysine
notes: as for B3
B5: FB-…(Ac)-PEG28 (peptide)
peptide: XGDLTYLKXX
modifications: N-terminal fluorobenzoyl (FB); acetyl (Ac) on the side chain of the C-terminal lysine; PEG28 attached to the C-terminal lysine
notes: N-fluorobenzoylated, C-PEGylated variant of ST1-62
B6: FB-…(FB)-PEG28 (peptide)
peptide: XGDLTYLKXX
modifications: N-terminal fluorobenzoyl (FB); fluorobenzoyl (FB) on the side chain of the C-terminal lysine; PEG28 attached to the C-terminal lysine
notes: also called ST1-92
B7: ST1-59, …(FB) (peptide)
peptide: H-RGDLMKLAK(Benzoyl(4-F))-NH2
SMILES: CSCC[C@H](NC(=O)[C@H](CC(C)C)NC(=O)[C@H](CC(=O)O)NC(=O)CNC(=O)[C@@H](N)CCCNC(=N)N)C(=O)N[C@@H](CCCCN)C(=O)N[C@@H](CC(C)C)C(=O)N[C@@H](C)C(=O)N[C@@H](CCCCNC(=O)c1ccc(F)cc1)C(N)=O
notes: free N-terminus; also called Peptide 2
B8: ST1-61, …(FB) (peptide)
peptide: H-RGDLRELAK(Benzoyl(4-F))-NH2
SMILES: CC(C)C[C@H](NC(=O)[C@H](CCC(=O)O)NC(=O)[C@H](CCCNC(=N)N)NC(=O)[C@H](CC(C)C)NC(=O)[C@H](CC(=O)O)NC(=O)CNC(=O)[C@@H](N)CCCNC(=N)N)C(=O)N[C@@H](C)C(=O)N[C@@H](CCCCNC(=O)c1ccc(F)cc1)C(N)=O
notes: free N-terminus; also called Peptide 5

Molecular target: T1, αvβ6 integrin (purified) (UniProt P06756 31-992; P18564 22-707)
T1 construct: Purified integrin captured on plate by anti-αv antibody P2W7; also called purified integrin
T1 sequence (P06756 31-992, chain 1 of 2): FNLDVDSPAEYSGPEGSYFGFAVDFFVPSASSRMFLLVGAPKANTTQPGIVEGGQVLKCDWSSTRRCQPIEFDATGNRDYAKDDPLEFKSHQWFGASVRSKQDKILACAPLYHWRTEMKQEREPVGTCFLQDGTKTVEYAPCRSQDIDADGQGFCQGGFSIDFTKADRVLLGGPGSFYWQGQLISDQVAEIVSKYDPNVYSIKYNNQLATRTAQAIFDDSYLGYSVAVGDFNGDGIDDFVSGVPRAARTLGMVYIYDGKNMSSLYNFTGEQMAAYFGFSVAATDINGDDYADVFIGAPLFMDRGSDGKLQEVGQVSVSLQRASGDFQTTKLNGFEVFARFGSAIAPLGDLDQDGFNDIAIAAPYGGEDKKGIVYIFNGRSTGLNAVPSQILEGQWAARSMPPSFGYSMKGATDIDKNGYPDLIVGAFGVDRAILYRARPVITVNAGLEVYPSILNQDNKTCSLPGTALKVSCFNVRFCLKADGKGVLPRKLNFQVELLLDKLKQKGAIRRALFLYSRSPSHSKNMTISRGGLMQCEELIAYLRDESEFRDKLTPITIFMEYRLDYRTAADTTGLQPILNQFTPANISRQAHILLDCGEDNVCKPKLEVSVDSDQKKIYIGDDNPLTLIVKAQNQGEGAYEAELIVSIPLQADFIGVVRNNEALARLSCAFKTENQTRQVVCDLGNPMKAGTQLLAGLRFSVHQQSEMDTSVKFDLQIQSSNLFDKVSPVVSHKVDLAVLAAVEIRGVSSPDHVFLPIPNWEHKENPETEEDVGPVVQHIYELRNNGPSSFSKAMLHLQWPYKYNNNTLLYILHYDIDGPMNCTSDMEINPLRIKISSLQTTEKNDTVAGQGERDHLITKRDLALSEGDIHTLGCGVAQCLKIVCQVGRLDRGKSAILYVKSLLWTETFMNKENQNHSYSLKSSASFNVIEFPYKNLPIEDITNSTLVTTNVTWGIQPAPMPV
T1 sequence (P18564 22-707, chain 2 of 2): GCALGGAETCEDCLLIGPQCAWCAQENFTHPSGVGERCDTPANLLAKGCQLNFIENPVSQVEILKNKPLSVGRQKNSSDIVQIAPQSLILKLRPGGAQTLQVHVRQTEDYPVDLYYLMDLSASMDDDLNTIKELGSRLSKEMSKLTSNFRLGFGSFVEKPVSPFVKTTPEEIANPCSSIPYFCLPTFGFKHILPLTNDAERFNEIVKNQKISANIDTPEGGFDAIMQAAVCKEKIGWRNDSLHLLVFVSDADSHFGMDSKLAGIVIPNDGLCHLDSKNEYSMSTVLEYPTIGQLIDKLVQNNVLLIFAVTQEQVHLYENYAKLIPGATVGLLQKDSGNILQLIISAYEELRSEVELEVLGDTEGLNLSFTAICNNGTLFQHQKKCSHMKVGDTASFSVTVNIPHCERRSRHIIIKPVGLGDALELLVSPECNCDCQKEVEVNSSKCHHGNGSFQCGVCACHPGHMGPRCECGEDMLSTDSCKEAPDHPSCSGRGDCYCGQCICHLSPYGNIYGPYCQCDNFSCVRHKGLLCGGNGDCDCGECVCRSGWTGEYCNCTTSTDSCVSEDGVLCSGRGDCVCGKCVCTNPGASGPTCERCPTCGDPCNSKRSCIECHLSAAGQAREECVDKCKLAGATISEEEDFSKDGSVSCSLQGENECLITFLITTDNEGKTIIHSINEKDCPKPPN
Assay: ELISA, αvβ6 integrin

| Binder | IC50 |
| --- | --- |
| B1 | 500 nM |
| B2 | 1600 nM |
| B3 | 4.3 nM |
| B4 | 21.9 nM |
| B5 | 15.5 nM |
| B6 | 17.6 nM |

Molecular target: T1, αvβ6 integrin (purified)
Assay: competitive binding ELISA, purified integrin; competitor biotinylated natural ligand
Procedure: (§1) Anti-αᵥ capture antibody P2W7 (5 μg/mL, Novus Biologicals) was coated onto Nunc MaxiSorp 96-well plates, followed by blocking with BSA overnight at 4° C. All wells were washed 3 times with PBS, followed by plating of purified integrin (3 μg/mL) and incubating at room temperature in a humid chamber for 1 hour. Peptide solutions, titrated (1 μM-1 pM for integrin and 100 μM-100 pM for αᵥβ₃ integrin) and mixed with biotinylated natural ligand, were added to the integrin-coated wells in triplicate. After incubating for an hour at room temperature, the plate was washed 3 times with wash buffer. Captured biotinylated natural ligand was detected with ExtrAvidin-HRP and developed with TMB substrate. Half-maximal inhibitory concentration (IC₅₀) of peptides was determined fitting to sigmoidal dose-response model in GraphPad Prism 6.0 (FIG. 5A). Results are shown in FIG. 5B and below in Table 2.

| Binder | IC50 |
| --- | --- |
| B7 | 2.7 nM |
| H-RGDLADLRK(Benzoyl(4-F))-NH2 (free N-terminus; also called Peptide 3) [ST1-60, …(FB)] | 4.7 nM |
| B8 | 1.1 nM |
| H-VGDLTYLKK(4‑fluorobenzoyl)-NH2 (free N-terminus; also called Peptide 1) [ST1-62, …(FB)] | 11 nM |

Molecular target: αvβ1 integrin (purified) (UniProt P06756 31-992; P05556 21-728)
Sequence (P06756 31-992, chain 1 of 2): as the sequence (P06756 31-992, chain 1 of 2) above
Sequence (P05556 21-728, chain 2 of 2): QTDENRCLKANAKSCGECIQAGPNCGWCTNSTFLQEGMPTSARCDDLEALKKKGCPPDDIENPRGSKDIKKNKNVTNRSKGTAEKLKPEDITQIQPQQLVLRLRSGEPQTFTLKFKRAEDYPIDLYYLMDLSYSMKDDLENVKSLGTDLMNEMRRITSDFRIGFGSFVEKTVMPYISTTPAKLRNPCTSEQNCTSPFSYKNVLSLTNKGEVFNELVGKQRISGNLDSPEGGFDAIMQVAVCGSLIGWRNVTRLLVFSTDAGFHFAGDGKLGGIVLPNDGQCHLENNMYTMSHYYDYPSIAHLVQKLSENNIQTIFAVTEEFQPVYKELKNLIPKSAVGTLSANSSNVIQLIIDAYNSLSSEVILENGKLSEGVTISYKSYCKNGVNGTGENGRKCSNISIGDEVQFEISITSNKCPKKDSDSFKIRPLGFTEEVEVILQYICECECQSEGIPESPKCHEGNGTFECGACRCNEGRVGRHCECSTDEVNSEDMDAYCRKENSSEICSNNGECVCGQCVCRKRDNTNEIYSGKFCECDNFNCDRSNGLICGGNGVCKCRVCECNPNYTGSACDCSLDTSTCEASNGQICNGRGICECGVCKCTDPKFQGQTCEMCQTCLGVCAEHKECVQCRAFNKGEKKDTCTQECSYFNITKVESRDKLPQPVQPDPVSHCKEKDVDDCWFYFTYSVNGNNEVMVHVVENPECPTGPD
Assay: as above
Procedure: as §1

| Binder | IC50 |
| --- | --- |
| B7 | 900 nM |
| H-RGDLADLRK(Benzoyl(4-F))-NH2 (free N-terminus; also called Peptide 3) [ST1-60, …(FB)] | 600 nM |
| B8 | 2300 nM |

Molecular target: αvβ3 integrin (purified) (UniProt P06756 31-992; P05106 27-718)
Sequence (P06756 31-992, chain 1 of 2): as the sequence (P06756 31-992, chain 1 of 2) above
Sequence (P05106 27-718, chain 2 of 2): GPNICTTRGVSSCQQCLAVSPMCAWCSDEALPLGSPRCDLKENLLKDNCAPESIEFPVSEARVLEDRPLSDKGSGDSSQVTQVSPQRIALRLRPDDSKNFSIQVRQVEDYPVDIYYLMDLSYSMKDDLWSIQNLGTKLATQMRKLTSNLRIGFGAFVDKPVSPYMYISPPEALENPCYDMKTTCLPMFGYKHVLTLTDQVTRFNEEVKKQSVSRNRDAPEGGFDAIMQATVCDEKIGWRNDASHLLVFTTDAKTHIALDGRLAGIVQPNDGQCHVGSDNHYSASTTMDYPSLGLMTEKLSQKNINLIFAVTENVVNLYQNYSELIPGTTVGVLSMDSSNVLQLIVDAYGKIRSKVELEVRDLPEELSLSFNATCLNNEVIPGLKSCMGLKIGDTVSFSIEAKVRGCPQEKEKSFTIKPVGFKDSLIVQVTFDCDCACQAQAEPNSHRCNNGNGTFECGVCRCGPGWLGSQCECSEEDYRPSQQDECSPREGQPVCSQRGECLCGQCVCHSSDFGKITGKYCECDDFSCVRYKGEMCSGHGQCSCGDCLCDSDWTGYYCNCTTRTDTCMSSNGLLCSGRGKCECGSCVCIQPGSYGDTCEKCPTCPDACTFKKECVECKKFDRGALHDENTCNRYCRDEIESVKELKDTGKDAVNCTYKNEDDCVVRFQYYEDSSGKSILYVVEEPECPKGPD
Assay: as above
Procedure: as §1

| Binder | IC50 |
| --- | --- |
| B7 | 2200 nM |
| H-RGDLADLRK(Benzoyl(4-F))-NH2 (free N-terminus; also called Peptide 3) [ST1-60, …(FB)] | 500 nM |
| B8 | 300 nM |

Molecular target: αvβ8 integrin (purified) (UniProt P06756 31-992; P26012 43-684)
Sequence (P06756 31-992, chain 1 of 2): as the sequence (P06756 31-992, chain 1 of 2) above
Sequence (P26012 43-684, chain 2 of 2): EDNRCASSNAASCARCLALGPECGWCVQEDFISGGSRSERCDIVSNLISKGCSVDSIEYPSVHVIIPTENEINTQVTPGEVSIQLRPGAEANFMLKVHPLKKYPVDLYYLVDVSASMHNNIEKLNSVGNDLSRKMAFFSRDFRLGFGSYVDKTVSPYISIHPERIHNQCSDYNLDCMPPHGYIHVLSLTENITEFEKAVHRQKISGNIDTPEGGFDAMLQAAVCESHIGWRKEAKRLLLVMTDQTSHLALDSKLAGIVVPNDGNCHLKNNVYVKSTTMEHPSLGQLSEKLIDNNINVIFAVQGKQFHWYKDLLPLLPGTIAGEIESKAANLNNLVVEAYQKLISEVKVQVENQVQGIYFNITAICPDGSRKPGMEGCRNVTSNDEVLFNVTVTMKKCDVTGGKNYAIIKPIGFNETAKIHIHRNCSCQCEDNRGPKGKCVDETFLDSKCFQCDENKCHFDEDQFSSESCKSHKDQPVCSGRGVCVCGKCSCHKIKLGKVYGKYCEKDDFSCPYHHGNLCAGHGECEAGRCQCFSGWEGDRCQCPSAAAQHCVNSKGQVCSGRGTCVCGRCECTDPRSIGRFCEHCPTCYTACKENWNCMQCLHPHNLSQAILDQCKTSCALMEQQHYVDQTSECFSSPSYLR
Assay: as above
Procedure: as §1

| Binder | IC50 |
| --- | --- |
| B7 | 2590 nM |
| H-RGDLADLRK(Benzoyl(4-F))-NH2 (free N-terminus; also called Peptide 3) [ST1-60, …(FB)] | 160 nM |
| B8 | 2600 nM |
| H-VGDLTYLKK(4‑fluorobenzoyl)-NH2 (free N-terminus; also called Peptide 1) [ST1-62, …(FB)] | 5300 nM |
